Results reported in US20200197469A1.

Legend:
[1] = molecular target: purified HIV-1 gp120 (HIV-1); assay: cell-based or functional assay
[2] = molecular target: purified HIV-1 gp120 (HIV-1); assay: SPR (Biacore); gp120 immobilized on the chip, MOMO30 flowed at 6.25 nM to 200 nM; triplicate on separate days

Q: For MOMO30 protein from Momordica balsamina, which IC50 in MAGI infectivity assay, HIV-1 lab strain NL4-3 [1] is on record?
A: 0.032 nM

Q: What about the Kd [2] of the same substance?
A: 5800 nM
